Results taken from patent US20240368285A1 (HEFEI TG IMMUNOPHARMA, published 2024).

Assays:
[1] = biological target: T1, MICA on human tumor cells (A-375, A549, HCT-15, MDA-MB-231) (human, UniProt Q29983 24-383); experiment: flow cytometry competition on HCT-15 cells; competitor: Biotin-h5A1002, detected with Alexa-647 streptavidin; % binding ratio of Biotin-h5A1002
T1 construct: whole, on cells
T1 sequence (looked up): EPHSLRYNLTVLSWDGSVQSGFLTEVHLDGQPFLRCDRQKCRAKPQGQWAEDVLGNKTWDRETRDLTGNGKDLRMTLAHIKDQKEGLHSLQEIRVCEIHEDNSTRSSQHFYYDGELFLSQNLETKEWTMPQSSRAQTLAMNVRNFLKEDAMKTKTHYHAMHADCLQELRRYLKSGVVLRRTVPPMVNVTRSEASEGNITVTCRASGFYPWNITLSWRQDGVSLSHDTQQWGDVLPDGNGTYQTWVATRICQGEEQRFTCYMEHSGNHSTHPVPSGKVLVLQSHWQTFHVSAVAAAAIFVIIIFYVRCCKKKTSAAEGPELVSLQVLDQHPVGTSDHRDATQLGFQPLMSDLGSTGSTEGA
Method: HCT-15 cells were diluted to a density of 2×10⁶/mL with PBS and added into a 1.5 ml EP tube in a volume of 100 l/tube. 10 l/tube of goat serum was added into the EP tube, and blocking was conducted at 4° C. for 30 min. […] The tube was incubated at 4° C. for 30 min. A biotin-labeled affinity maturation antibody Biotin-h5A1002 (having a heavy chain sequence as set forth in SEQ ID NO: 13 and a light chain sequence as set forth in SEQ ID NO: 14) was added. The tube was incubated at 4° C. for 30 min. 1 mL of PBS was added into the EP tube, and centrifugation was conducted 4° C. at a rate of 3,500 rpm for 5 min. The supernatant was removed. The EP tube was washed once with the PBS, and the supernatant was removed after centrifugation. The cells were resuspended with PBS in a volume of 100 l/tube. An Alexa-647 labeled Streptavidin secondary antibody (purchased from Biolegend) was added into the tube in a volume of 1 l/tube, and the tube was incubated in the dark at 4° C. for 30 min. The tube was washed twice with PBS, and the supernatant was removed after centrifugation. The cells were resuspended with the PBS in a volume of 200 μl/tube, and detection was conducted by a flow cytometer.

MICA008α3-Fc = biological target: T2, MICA008α3-Fc (human); experiment: ELISA on coated MICA*008 α3-Fc (1 µg/ml), HRP anti-human Fab secondary, OD450
T2 construct: also called MICA*008-Fc; domain α3 of MICA-008 Fc fusion protein

[2] = biological target: T3, MICA protein (SPR analyte) (human, UniProt Q29983 24-308, limits assumed); experiment: SPR, Biacore 8K
T3 construct: also called major histocompatibility complex class I chain related polypeptide A
T3 sequence: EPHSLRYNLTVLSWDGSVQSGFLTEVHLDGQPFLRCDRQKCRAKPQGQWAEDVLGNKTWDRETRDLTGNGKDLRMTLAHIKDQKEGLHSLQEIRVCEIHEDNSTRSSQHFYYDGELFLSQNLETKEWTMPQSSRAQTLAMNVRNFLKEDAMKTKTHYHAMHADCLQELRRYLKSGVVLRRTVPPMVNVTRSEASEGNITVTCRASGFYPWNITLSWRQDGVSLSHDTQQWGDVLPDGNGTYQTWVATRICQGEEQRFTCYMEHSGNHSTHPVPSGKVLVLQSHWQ
Method: In a Biacore 8K (Cytiva) system, the antibody was diluted to a concentration of 10 µg/mL with running buffer (HBS-EP), and the antibody was conjugated onto a protein A (Cytiva, 29127556) chip at a flow rate of […].
Kinetic and affinity data of binding of the maternal antibody h5A1 and the affinity maturation antibody h5A1002 and MICA were detected.

MICA002α3-Fc = biological target: T4, MICA002α3-Fc (human); experiment: ELISA on coated MICA*002 α3-Fc (1 µg/ml), HRP anti-human Fab secondary, OD450
T4 construct: Produced in the Applicant's laboratory; also called MICA*002-Fc; domain α3 of MICA-002 Fc fusion protein
Method: (§1) After the antibodies were added, signal intensity was used for judging the binding characteristics of the antibodies and MICA and MICB.
(§2) The fusion proteins (produced in the Applicant's laboratory; an amino acid sequence of MICA002α3-Fc is as set forth in SEQ ID NO: 22; an amino acid sequence of MICA005α3-Fc is as set forth in SEQ ID NO: 24; an amino acid sequence of MICA008α3-Fc is as set forth in SEQ ID NO: 25; an amino acid sequence of MICA004α3-Fc is as set forth in SEQ ID NO: 23; an amino acid sequence of MICB001α3-Fc is as set forth in SEQ ID NO: 26; and an amino acid sequence of MICB005α3-Fc is as set forth in SEQ ID NO: 27) were diluted to a concentration of 1 μg/ml with PBS and then added into a 96-well plate in a volume of 100 μl/well. The plate was placed at 4° C. overnight. The PBS in the 96-well plate was removed by sucking. After the plate was washed with PBST (that is, PBS having a pH value of 7.2 included 0.1 volume % of Tween 20) for 6 times, PBS containing 10% of BSA was added in a volume of 200 μl/well. The plate was incubated at 37° C. for 2 hours for blocking. The blocking solution was removed. […]

MICB005α3-Fc = biological target: T5, MICB005α3-Fc; experiment: ELISA on coated MICB*005 α3-Fc (1 µg/ml), HRP anti-human Fab secondary, OD450
T5 construct: also called MICB*005-Fc; domain α3 of MICB-005 Fc fusion protein
Method: as §1, §2

T2 sequence (chain, as listed by the source limits assumed): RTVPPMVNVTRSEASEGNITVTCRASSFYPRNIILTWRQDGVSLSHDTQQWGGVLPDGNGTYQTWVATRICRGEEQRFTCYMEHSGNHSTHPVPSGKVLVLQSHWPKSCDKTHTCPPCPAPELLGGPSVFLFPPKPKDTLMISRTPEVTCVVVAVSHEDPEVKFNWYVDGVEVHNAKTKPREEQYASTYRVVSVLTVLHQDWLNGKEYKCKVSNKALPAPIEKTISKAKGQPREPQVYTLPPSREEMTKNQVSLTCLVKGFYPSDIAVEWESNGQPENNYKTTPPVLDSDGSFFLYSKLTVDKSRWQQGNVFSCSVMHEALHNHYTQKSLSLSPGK
T4 sequence (chain, as listed by the source limits assumed): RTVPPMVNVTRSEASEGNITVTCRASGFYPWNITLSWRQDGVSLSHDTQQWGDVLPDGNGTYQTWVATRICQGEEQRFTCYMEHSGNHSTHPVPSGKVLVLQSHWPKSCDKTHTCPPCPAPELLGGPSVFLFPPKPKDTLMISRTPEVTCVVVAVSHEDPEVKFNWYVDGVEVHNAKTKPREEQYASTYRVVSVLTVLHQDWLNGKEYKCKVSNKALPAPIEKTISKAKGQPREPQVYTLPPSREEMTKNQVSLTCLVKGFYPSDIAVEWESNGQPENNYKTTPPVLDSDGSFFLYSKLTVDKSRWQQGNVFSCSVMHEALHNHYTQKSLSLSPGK
T5 sequence (chain, as listed by the source limits assumed): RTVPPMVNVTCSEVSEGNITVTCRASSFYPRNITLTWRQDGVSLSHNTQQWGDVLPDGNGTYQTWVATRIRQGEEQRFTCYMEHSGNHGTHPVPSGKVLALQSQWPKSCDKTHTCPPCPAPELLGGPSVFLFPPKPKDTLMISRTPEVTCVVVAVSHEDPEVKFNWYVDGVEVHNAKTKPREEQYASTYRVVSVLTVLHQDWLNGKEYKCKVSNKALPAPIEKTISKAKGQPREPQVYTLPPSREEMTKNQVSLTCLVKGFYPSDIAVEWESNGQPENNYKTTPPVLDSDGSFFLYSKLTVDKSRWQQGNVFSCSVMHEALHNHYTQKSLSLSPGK

B1: affinity maturation antibody h5A1002 (antibody, V domains shown)
VH: QVQLQESGPGLVKPSETLSLTCTVSGFSLTTYGGHWIRQPPGKGLEWIGMIWTDGWTDYNAAFISRVTISVDTSKNQFSLKLSSVTAADTAVYYCARKGHGYYYAMDYWGQGTLVTVSS
VL: EIVLTQSPGTLSLSPGERATLSCTASSSVSSSYLHWYQQKPGQAPRLLIYSTSNLISGIPDRFSGSGSGTDFTLTISRLEPEDFAVYYCHQYHRSPFTFGQGTKLEIKR
notes: Human IgG1, kappa; also called h5A1002-hIgG1
[1]
  IC50 (read off the curve): ~1 µg/mL
MICA008α3-Fc
  EC50 (read off the curve): ~0.06 µg/mL
[2]
  fold increase of affinity against maternal antibody h5A1: ~39 times
MICA002α3-Fc
  EC50 (read off the curve): ~0.06 µg/mL
MICB005α3-Fc
  EC50 (read off the curve): ~0.05 µg/mL
